The values below come from patent US20090074770A1.

What is called koff is a measure of how fast the partners let go of each other. Low readings indicate a long-lived complex, high ones a short-lived complex.

Assay [1] addresses human serum albumin (human) (UniProt P02768). Description: SPR (Biacore), ratio of off rates at pH 7 and pH 5. Background: In SPR one partner is held on a chip, and binding of the other changes the refractive index at the surface.
Assay [2] shares this target. Description: SPR (Biacore T100), serum albumin immobilized on CM5 chip, running buffer pH 5, 25 C.
The target is the same in assay [3]. Kind of assay: SPR (Biacore T100), serum albumin immobilized on CM5 chip, running buffer pH 7, 25 C.

B1: Nanobody 4D3 (VHH, from a related filing)
VHH: EVQLVKSGGGLVQPGGSLRLSCAASGFTFSHYQMSWVRQAPGKDVEWVSSISMLGGGTTYADSVKGRFTISRDNAKSTLVLQMNNLKVEDTAVYYCARGFSGNYYRADLGQGTQVTVSS
Take B1: the Ratio pH 7/pH 5 in assay [1] was found to be 2.42. Besides, the off-rate (koff) in assay [2] turned out to be 0.0137 s⁻¹; in assay [3] it was 0.00565 s⁻¹.

B2: Nanobody 4A2 (VHH, from a related filing)
VHH: EVQLVESGGGLVQAGGSLRLSCAASGLSFSSYAMGWFRQAPGKEREFVAAIRRREGNSYYADSVKGRFTISRDSAKNTVYLQMNSLKPEDTALYSCAATAPHYSGSFAYAGGYDYWGQGTQVTVSS
As to B2, the Ratio pH 7/pH 5 in assay [1] was 3.54. Besides, the koff in assay [2] turned out to be 0.0227 s⁻¹; in assay [3], 0.00642 s⁻¹.
